Assay results published in the DeepSol protein solubility set.

Assay: soluble on expression in E. coli; label from the status in PepcDB or PDB records

| Sequence | soluble on expression in E. coli |
| --- | --- |
| MTTLFISDLHLDPARPAITELFLDFLRTQVPGSDALYILGDLFEAWIGDDTPSTAADAVAEALHAVATTGVPVFFMPGNRDFLVGAAYAQRAGFRILPDPTVIDLYGQPTLLMHGDLLCTDDTAYQAFRAQTRDPAFQAQFLSQPLAARVAFAQQARAASHARQSELKQGDQAQFETVTDVAPAEVDATFVRYGLDRIIHGHTHRPAIHTVQAGGRTCTRVVLGDWYEQGSVLRVDADGLALEQLALLEHHHHHH | soluble |
| MTTLSHVEALCALEQPYRADAECDRLFDAAMRELVDYHCEHSPGYRRWLEQNGFTPERLAGLSDWSQLPPIFANYFKRRLLLSTSGEDALELTSSGTTGQKSRMRYDERSIGAAQRMVDRIFDHYGWNTPQQPCNYLLLSYEPAGAITLGTAYTDQFLCKYAPVKRAVYALRHNGKGNEFDPFGAIRALQEFAAEGLPVRIFGFPAFLWFALERMRDMGLPPLALHPESLVFLGGGWKTHADQAIPKAELYRRLGEQLGLPDARCRDGYGSVEHPVPYVECTNHRFHVPSWARAWARDTATLARLPYGEAGFLHLVSPYITSSPAHSMLLSDLAVLQLAERCGCGLATDWFELLGRAGTSKSRSCAMAASELIKESLEHHHHHH | soluble |
| MTTSDSRSFMYRLLKFISRQPIQLSRLFARMLAGLVNTLKLTKTSRTIQLNLKITLPYLNDQQRERIIQNAIRNELTSYMEFFSIWGSSNQKNISRIHHVEGADFFHQAIAENKGIVLIVPHFGTWEIMNAWCAQYTDMTILYKPVKDKDADRFVREARSREQAKLVPTDESGVRQIFKALKQGGTTVILPDHTPNVGGEMVDYFGIPLASSNLSAKLIQKTKAKALFLYAIRNENHGFDMFIEPMDPAIYQGTDHDGTLVIHHAIEDLIRKYPDHYHWSYKRFKA | not soluble |
| MTTTGIIAEFNPFHNGHKYLLDQAHGLKIVAMSGNFVQRGEPAIIDKWTRAQMALENGADLVVELPFLVAVQSADYFASGAVDILAKLGIDTLAFGTETALDYNGLSTIYGKMAEQMSEFLTTLPEKLSYPQKTQLMWEKFAGVQFTGDTPNHILALAYAKACAGRNIRLRPIQRRGADYHSTEKTVAYASATSLRHHRQDPAFVAKSMPNANLFQTSPQVTWEDYFTLLQYQVLTQPDLTQLFQVNEELAIRIKKAIRQVTSFDQLVETVATKRYTKARVRRILIYILIGARETSLPQDVHILGFTAAGRTHLSHIKNKTRIISRIGSQPWDALTQQADQVYQLGNPKIAEQTWGRVPI | not soluble |
| MTTVRIPAGWPATEEEARAVQDELRGRVILDEPGPPPGTGRVTGVDVAYDDERDVVVAAAVVLDAATLDVVAEATAVGEVSFPYVPGLLAFREIPTVLAALDALPCPPGLIVCDGYGVAHPRRFGLASHLGVLTGLPTIGVAKNPFTFSYEDPGAPRGSAAPLLAGADEVGRALRTQSGVKPVFVSVGHRVDLDHACAHTLALTPKYRIPETTRRADSLCRRALKEATALEHHHHHH | soluble |
| MTTVTKHKVLLIAGPTAVGKTALSLALAKQLNGEIISGDSMQVYRHLDIGTAKIMPEEQAGIPHHLIDIKNIDQRFTVAEFVSRTTALIIDISARGKLPIIVGGTGFYLQSLLAGYQFGPADNEPDMAYRQAWFDRAAVEGSDVAWMALKQRDPQAATAIAPANLVRVVRALEYVHTTGQLFSEQADTHGDTLDAYTLCLTAERALLYTRINQRVDQMVAAGLEQEARWLFDQGGAMLPAGKGIGYHEWFPYFNGEQTRDESIAKIKQDSRRYAKRQLTWFRNKMSVDWINLLEHPELRASIDQRLASWLSLEHHHHHH | soluble |
| MTTYDRNRNAITTGSRVMVSGTGHTGKILSIDTEGLTAEQIRRGKTVVVEGCEEKLAPLDLIRLGMN | soluble |
| MTVDDIMVPRSEIIGIDINDDWKSILRQLSHSPHGRIVLYRDSLDDAISMLRVREAWRLMSEKKEFTKETMLRAADEIYFVPEGTPLSTQLVKFQRNKKKVGLVVNEYGDIQGLVTVEDILEEIVGDFTTSMSPTLAEEVTPQNDGSVIIDGTANVREINKAFNWHLPEDDARTVNGVILEALEEIPVAGTRVRIGEYDIDILDVQDNMIKQVKVFPVKPLRESVAELEHHHHHH | soluble |
| MTVKAVFFDIDGTLLNDRKNIQKTTQKAIQQLKKQGIMVGLATGRGPGFVQPFLENFGLDFAVTYNGQYILTRDKVLYQNQLPKSMIYKVIRYANEKKREISLGTASGLAGSRIIDMGTSPFGQVISSFVPKSWARTVEGSFKHLIRRIKPQSFRNLVTIMREPIYQVVLVASQAETKKIQEKFPHIKITRSSPYSLDLISVDQSKIKGIERLGEMFGFDLSEVMAFGDSDNDLEMLSGVGIGIAMGNAETVVKDGAHFTTDSNNNDGISKALAHYGLIH | not soluble |
| MTVPIAIIGTGIAGLSAAQALTAAGHQVHLFDKSRGSGGRMSSKRSDAGALDMGAQYFTARDRRFATAVKQWQAQGHVAEWTPLLYNFHAGRLSPSPDEQVRWVGKPGMSAITRAMRGDMPVSFSCRITEVFRGEEHWNLLDAEGQNHGPFSHVIIATPAPQASTLLAAAPKLASVVAGVKMDPTWAVALAFETPLQTPMQGCFVQDSPLDWLARNRSKPERDDTLDTWILHATSQWSRQNLDASREQVIEHLHGAFAELIDCTMPAPVFSLAHRWLYARPAGAHEWGALSDADLGIYVCGDWCLSGRVEGAWLSGQEAARRLLEHLQLEHHHHHH | soluble |
| MTVRIAINGFGRIGRNVVRALYESGRRAEITVVAINELADAAGMAHLLKYDTSHGRFAWEVRHEREQLFVGDDVIRILHERTLADLPWRELGVDVVLDCTGVYGNREHGEAHIAAGAKKVLFSHPGSNDLDATVVFGVNQNQLRAEHRIVSNASCTTNCIIPVIKLLDDAYGIESGTVTTIHSAMNDQQVIDAYHSDLRRTRAASQSIIPVDTKLAAGITRIFPQFNDRFEAIAVRVPTINVTAIDLSVTVKKPVKASEVNQLLQKAAQGAFHGIVDYTESPLVSIDFNHDPHSAIVDGTQTRVSGAHLIKTLVWCDNEWGFANRMLDTTLAMAAVGFRLDASASTKL | not soluble |
| MTVTSSAAIDIGGGGGGRRSDRLDSDRTSEDMSFIASPANESFQIGASFVDVQNESSGSIDTATATLHELNYTFGMPPVTEESENMPQNYETVVELLPGEERAPINKLTEFPIEGGSLFVTNFRIVVILKDKEVEEALRFLVFPLQDIEQIDLAIPAFIHLSLKIGRMFTICFKTAEDAALVHKILYTAFQRLNRPISSIYTSRPQDWTSKNTDNPMQSLNAFAWKFSEAVDELDRDGKLPSWLLRADSVAQEITHIDFNRLGMSEHFQISSVNENFEVCPTYPEKIIVPKGITDDDIRKGAPYRSIGRFPAVIWRCRKTRAVLMRSSQPQVGILSWRNPTDEKIIEEAVKASRIEGEEKKQFIIMDARGYTSAFANRARSGGFENTEYYQQAKLEFLGLPNIHAVRGSFNNVRTMLHNLGPNEQLLTSLQTTGWLLNLSNLLVNAANCADHLSKGHSVLVHCSDGWDRTTQVTTLAKIMLDEYYRTVKGFEELIRRDWIAFGHKLYDRQLVAFGNWGTSDERSPVFLQFLEAVRHLQREQPTLFQFTHAYLIKLAKHAYSGLFGSFLFNSHKERREAMEKCKGTLVDIWRFIGPHNEEYVNQSFDEHYTGAVKPVNVSVINLRVWHEVFADEEEHYTQIFSPKEERPLSGCTTPMNTSTSTNLVKSKSSESINSLNVDGSAKESSQQHPTCSTTPSDNTNSLPMSTSFIQQSLYQPKVRGVAAIDRDGVIRFEDDEQAMLRKKNKLRAEEIRRKDEKIEELRRRAVLDTNKVSPGQRQSYSESDVETTGTLERVMSDVSMVDPVNELPHFKPNTTWEGESGHCAYCKKEFNKLSVYVEDRQHHCRNCGRVVCEDCSKNRFSVIEEGKSVQKRACDSCYDSMHETDLKLSSSSTTTTSSSTKIENDSNVPGLDNNSDNVSENVSENAIPDIIVEEKEAEDPIKEAESPSKETKCPKTLRNFISFSPKSSMRKNKVHSRDPLKSIDEGSSSQQAESDDVLDVNEQPL | not soluble |
| MTVTSSAAIDIGGGGGGRRSDRLDSDRTSEDMSFIASPANIGASFVDVQNESSGSIDTATATLHELNYTFGMPPVTEESENMPQNYETVVELLPGEERAPINKLTEFPIEGGSLFVTNFRIVVILKDKEVEEALRFLVFPLQDIEQIDLAIPAFIHLSLKIGRMFTICFKTAEDAALVHKILYTAFQRLNRPISSIYTSRPQDWTSKNTDNPMQSLNAFAWKFSEAVDELDRDGKLPSWLLRADSVAQEITHIDFNRLGMSEHFQISSVNENFEVCPTYPEKIIVPKGITDDDIRKGAPYRSIGRFPAVIWRCRKTRAVLMRSSQPQVGILSWRNPTDEKIIEEAVKASRIEGEEKKQFIIMDARGYTSAFANRARSGGFENTEYYQQAKLEFLGLPNIHAVRGSFNNVRTMLHNLGPNEQLLTSLQTTGWLLNLSNLLVNAANCADHLSKGHSVLVHCSDGWDRTTQVTTLAKIMLDEYYRTVKGFEELIRRDWIAFGHKLYDRQLVAFGNWGTSDERSPVFLQFLEAVRHLQREQPTLFQFTHAYLIKLAKHAYSGLFGSFLFNSHKERREAMEKCKGTLVDIWRFIGPHNEEYVNQSFDEHYTGAVKPQIFSPKEERPLSGCTTPMNTSTSTNLVKSKSSESINSLNVDGSAKESSQQHPTCSTTPSDNTNSLPMSTSFIQQSLYQPKVRGVAAIDRDGVIRFEDDEQAMLRKKNKLRAEEIRRKDEKIEELRRRAVLDTNKVSPGQRQSYSESDVETTGTLERVMSDVSMVDPVNELPHFKPNTTWEGESGHCAYCKKEFNKLSVYVEDRQHHCRNCGRVVCEDCSKNRFSVIEEGKSVQKRACDSCYDSMHETDLKLSRATSLSEMSSFDSFGPSSPPASSTSSSSLNMLASMSPTRPQPIPISCKSSSNSISSPRPSPGEFSRHSSTQAVKG | not soluble |
| MTYDLSRLTQDLPHETSEPSPKSASTLSLPPGESDQNGNTSSHEGVTPPRRRCTISRSSSIDSISGETLISEYFSSDELDKLSTALSEVTF | not soluble |
| MTYFTSWDEFAKAAERLHSANPEKCRFVTKYNHTKGQLVLKLTDDVVCLQYSTNQLQDVKKLEKLSSTLLRGIVTQ | soluble |
| MTYGYPKKWKENMTSGQVIAAELRLGIVSGEIESHIQLSENQVAQQFNVSRSPVRDAFKLLQTDQLIQLERMGAQVLPFGDQEKKEMYDLRLMLESFAFSKLSGTDTQHIIKEMKKQLEMMKVAVQFEDAEAFTQHDFEFHEVMIQATNHQYLKVFWNHLKPVMESLILISMRQRMANDPKDFERIHKNHQVFIDAVENDDASILRKAFHLNFDDVGENIEAFWLR | not soluble |
| MTYKELATFLKVLSDSSRLEILDLLSCGELCACDLLAHFQFSQPTLSYHMKALVKTNLVTTRKIGNKHLYQLNHNIFESVINNLSKVHTSNQRCICHNLKTGEC | not soluble |
| MTYPYRTTMALNTYQYRETTMIDPKKIEQIARQVHESMPKGIREFGEDVEKKIRQTLQAQLTRLDLVSREEFDVQTQVLLRTREKLALLEQRISELENRSTEIKKQPDPETLPPTLLEHHHHHH | not soluble |
| MVADHFRYLVQYDDINREEHAHKSRIAYQEALGIAKDKMQPTHPIRLGLALNASALNFDVLNLPKEANEIAQSALDSAHRELEKMKSSLDSYDISNLKRARTLYDLLKSTHEQRVDGKEGEEADN | not soluble |
| MVAKISVGSSLFGALSYNQNKVDEEQGKVLLSNRMFESEDGNFSIRRCMECFDIHLPADLKTEKPIIHISLNPHPDDVLLDSQLADIAKEYMDKLGYGNQPYIVYKHEDIARHHIHIVSIRVDDTGKKINDKFEHIRSKQITRELEQKYGLHPAEKKQAAERPELKKVDYRAGDVKHQLSNTVKALASSYRFQSFTEYKALLSIYNVQAEEVKGEVNGKPYNGIVYSATNDKGEKQGNPFKSSSLGKSVGYEAIQRHIKKSTKDIQGKNLKERTRRTVGAVMKSTYNRKELEQELKKKGIDVLFRQNDTGRIYGVTFIDHENRTVLNGSRLGKDFSANVFNNLFSGSRTLTGNSKQEMQEHTPEFNSTGHLENTGKTIAGLFSLLSGGNDTPPDNSQVPPSKKRKKKKQRRILEHHHHHH | not soluble |
